This series can be described thus: soluble on expression in E. coli; label from the status in PepcDB or PDB records.
Take “MAGDPMSTVAFHTLGCKVNHYETEAIWQLFKEANYERVDFEANADVFVINTCTVTNTGDKKSRQIIRRAIRQNPDAVICVTGCYAQTSSAEIMEIPGVDVVVGTQDRHKLLGYIDEFRKERQPINGVGNIMKNRKYEELDVPYFTDRTRASLKIQEGCNNFCTFCIIPWARGLMRSRDPEKVVEQATQLVNSGYKEIVLTGIHTGGYGQDLKDYNLAQLLRDLETINGLERIRISSIEASQLTDEVIDVLERSTKVVRHLHIPLQSGSDTVLKRMRRKYTMDRFSERLTKLHKALPDLAVTSDVIVGFPGETEAEFQETYDFIVKHKFSELHVFPYSPRIGTPAARMDDQIDEEIKNERVHKLITLSNQLGKLYASKFDQDVLEVIPEEQGDTEGTLVGYADNYMKVQFEGDESLIGQIVKVKITQANYPLNEGQAIKVVDFATNKSDREVLVLEHHHHHH”: the “soluble on expression in E. coli” value is listed as “soluble”.

Consider “MSLSARSSHLSQPVVKSVLVYRNGDPFYAGRRVVIHEKKVSSFEVFLKEVTGGVQAPFGAVRNIYTPRTGHRIRKLDQIQSGGNYVAGGQEAFKKLNYLDIGEIKKRPMEVVNTEVKPVIHSRINVSARFRKPLQEPCTIFLIANGDLINPASRLLIPRKTLNQWDHVLQMVTEKITLRSGAVHRLYTLEGKLVESGAELENGQFYVAVGRDKFKKLPYSELLFDKSTMREGHHHHHH”, for which the “soluble on expression in E. coli” value was “not soluble”.

With “MTDEERIELQQNNPLHGLKLETMLQELVDFYGWDILDTAMRFNCFNTKPSIASSVKYLKKTEWAREKLENFYLYRFKRMPRASEEEYNLPPRARTFPHGLEPKEPMPLTVDSILNSQAKAASSFKKRSSRGRPTRRLEHHHHHH”, the “soluble on expression in E. coli” value is “soluble”.

Take “MGSDKIHHHHHHMDSVDLEVLRSSVRWQQEGHRVLLVTVVRTWGSSPRPEGAMLAVRDDGLVVGSVSGGCIEDDLIDRVRRLGITADHPESVKYGISAEEAHRFGLPCGGTIELVTEPLKPASGIAELLDAVENGRLATRTLDMATGTATLGPAEATDGLVFDGNSLLTIHGPRYRMLVIGAGQLSKYLCQIAVGLGFQVTVCDPREEYTETWDIPGVTMVRTMPDDTVTDMKLDERCAVIALTHDPKLDDLALMEALRTRAFYVGALGSRRNNQARRERLKEFDLNDVQLARLHGPVGIFIGSRTPPEIAISILAEVVAAKNHVSLPDILQVEGAKAARELAAGTGSSCDT”: the “soluble on expression in E. coli” value was “not soluble”.

Take “MEFRRKCSRSAMRHKSQKRRAMPNQDVEKVNEIFKFPRISEQALMDGILKISCIASFKNGNQRCFEGSIYVKELCGLRNGTKVFKFIELANIRLYSIDEEDEIPEYDWIISV”: the “soluble on expression in E. coli” value is on record as “not soluble”.

As to “MGSDKIHHHHHHMNDLSRSPYILEMRNVSKTFPGVKALDGINLKVKRGTIHALMGENGAGKSTLMKILYGIYTPDAGGELILDDKPFKPSAPIDAIRTGLTMVPQEISPAGNLTIADNFYLGREITRSKFFLNQKEMDCKTAEILNELGIPMDVTAKMSDVSVAKAQLVAIATAVSNDAKVIIMDEPTTALTEVEVEQLYKIIETVRQRGISIIFISHKLDEVFRVSDEITVIRDGQYVGTKLTSEVTKDELISMMVGRDMSEMFQRERIVISDEVVLEIKNFSRAGKYHDINFQVRRGEIFGIAGLVGAGRSEIVEGLFGYKLADSGEIYVHGEKADIKTPLDAMKYKIGFVTEDRKLTGLFLNLSITDNMIMPRMSPYLENFLVSVTKAQKSANAQKDKLKIKAPNVEVITNNLSGGNQQKVLLARWLLLEPDILILDEPTKGIDVGAKAELYKLMVELAKQGKSIIMITSDMLELLSMSDRVMVMHEGRVAGIIPQEELTQERVLELASGLGQV”, the “soluble on expression in E. coli” value was “not soluble”.

For the sequence “MSLSKMEEILVIGVNTRPVVESAFRLGYRVYSAGYYCTADFKHYTERRCILRERSGESCGRFHENFSQEKLLEAASDFIERADGIIPLTGAPPLPGEKVLGNSRVDHVEDKYRLYRRIRNSYPTPETHLISDPAEAMEIVAAGEKKYIAKPVSGAGGFGVTEFREGDGEFLLQEYIEGVPVSASVLSTGEDAITVLTSRQIIDRGVPGFEGQFVYAGNMTPGPSGEIEDLASDLILDLSLRGSNGVDLIMRDSELYVIEVNPRIQGTFECAEASLGINMVDAHIRACMGELIEKPDPVSYAVKRILYAPARCRVGEIKTMGVHDLPVPGTIIEEGEPLLTVLASHNSMEAAENLASNICSRVKKELHYLRCPPPRPQGVEGHHHHHH”, the “soluble on expression in E. coli” value was “not soluble”.

For “MGSDKIHHHHHHMGEYLTLPMEVYSGILVTHEGVFHGDLIVEEMAFEESRVEKDDFVISPTFFNAHTHLGDAALREAPRLDLVSIVGPGGYKHRMLSQIDSKTLRQEVELEVRISRDAGTSHFLDFREGGKAGLEIVKGIDGVLPLARPTSVEEAEEVEAFGFAYSSARDHDLKLMEEVREIARRRKMLFAIHAGEKDCADVDAALALEPDFVVHMNSCPEKIREFVEAEIPIVSCIRSNAFFGLLNKKSYELLSEYEKWMLGTDNAMISTASMLDEMHFAAYLIGKEKAILRAATASYAVFGFRHGYVVFNRNCSFRRTSDPLLTLVRRAGVKDIERVLIL”, the “soluble on expression in E. coli” value is reported as “not soluble”.

In the case of “MSKTIIKNIGKIVSGDIKSPVLQADTIVVEDGLIAAIGGEELMKDAGDATIIDAAGSTVTPGLLDTHVHVSGGDYAPRQKTMDFISSALHGGVTTMISAGSPHFPGRPKDAAGTKALAITLSKSYYNARPAGVKVHGGAVILEKGLTEEDFIEMKKEGVWIVGEVGLGTIKNPEDAAPMVEWAHKHGFKVQMHTGGTSIPGSSTVTADDVIKTKPDVVSHINGGPTAISVQEVDRIMDETDFAMEIVQCGNPKIADYVARRAAEKGQLGRVIFGNDAPSGTGLIPLGILRNMCQIASMSDIDPEVAVCMATGNSTAVYGLNTGVIAPGKEADLIIMDTPLGSVAEDAMGAIAAGDIPGISVVLIDGEAVVTKSRNTPPAKRAAKIL”, the “soluble on expression in E. coli” value is “soluble”.

For the sequence “MDRFKVVVTDYEFQTLAPEQEVLSSLNVEFVATQCRTEEEVISACRDADAIINQYAPISAEVIAQLEKCKIISRYGVGVNTVDVDAATEKGIIVANVTDYSIDEVSDHALALLLSLARKIVKLNHEVKSGTWNFNVGKPIYRLRGRTLGLVGLGRIPQALAKKAQAFGLRVIAYDPYVPAKVADELNVQLLGLNDVFRQSDYISVHAPLTKETKGMISDEQFNLAKKELIIVNTARGPVIDESALIRALQEGKISGAGLDVTECEPIQPDNPLLKMENVVITPHVAWYSEESEKELKRKTAQNVADVLSGYYPTYLVNHNVKEKMRLKEKGLYV”, the “soluble on expression in E. coli” value was “soluble”.

Regarding “MGSDKIHHHHHHMTLLIVGATGTLGRQVARRAIDEGYKVRCLVRSPKRAAFLKEWGAELVRGDLCQPQTLAEALEGVTAVIDAATSRATDSLTIKQVDWEGQIALIQAAKAASVERFIFFSIIDADKYPEVPLMEIKRCTELFLAESGINYTVLRLAGFMQGLIGQYGIPILEGQPVWVTGASSPVAYMDTLDIAKFAVRALSVPETEKQAFPVVGTRAWSAEEIINLCERLSGKEAKVRRMPINLLRAVRGLAKFFQWGWNIADRLAFTEVLASGRPLNASMDEVYTVFGLEKEQSTTLESYLQEYFSRILKKLKQLDYEKTKTKKQKDKKTPFKKVNS”, the “soluble on expression in E. coli” value is given as “not soluble”.

Take “MDTQQIDVMVADASHEVYVDTILETIRNAAKVRGTGIAERTHEYVATKMKEGKAIIALCGDVFAGFTYIESWGNKQYVATSGLIVHPDFRGLGLAKRIKQASFQLARLRWPRAKIFSLTSGAAVMKMNTELGYVPVT”: the “soluble on expression in E. coli” value was “soluble”.

For “MSEALETGDPSPPPPIVSENGKTYYYLNSQESQAPNTPSPQEVPPKKMTNLFESGPLVYEDVAADIEAVTERASRRHYENKMVVKNSREMFDNVNILPDGRYYCCLCNRPYKTHATLTAHLRGYHLRNESSCDEPGCNFLSFTDQEKKRHRRTHDKKKKERNSQESMVIHEKIQKAVRRLDYPGEDELRDHLNGSTEVQGTIRTMTKKGKIRYACLKCPHSVFNAYHAARHVEMHNDFPKNCFYCGEIRKGTVDLQVHYMRVHKHEGIRTFKCSVCHLRFTTTILFRDHVECENGCQNPEIRQDIYYGELPEGTIVDDLTQDRLQNFRKRQEIWKTMGQMVEEHRTDVHEEIVGESSVQAGDTTVFDGSRAFIQTPFGLKTALEVKNTSRFCPRSGKRTSDDDLMITNKKRERLEMAPNLHFHQDIIHRLPTSTTTQRQNNAFQNEYLRPPVSYGYDPLIGRYPDFQLMSQSSLPSSSASSSSYDPFATAVYQDSDRNPMQPNDQHICDMNNVGAYETANFGLDNSSDLVVNEATIASNLMVNEVEDEVFEELNKLDFVMPADDGNDNDDDLEEVFNFGNVA”, the “soluble on expression in E. coli” value is on record as “not soluble”.
